Test results as given in paper PMC11773481.

Target: purified recombinant DPP9-FLAG, Q86TI2
Test: SEC + native gel or EMSA; protein expressed alone in Expi293F, purified by anti-FLAG IP, Superdex 200 Increase 10/300 GL; BN-PAGE immunoblot
Settings: remark: other sources report otherwise

stoichiometry N: 2
B1: purified recombinant DPP9-FLAG, Q86TI2 1-863 (enzyme)
chain: MATTGTPTADRGDAAATDDPAARFQVQKHSWDGLRSIIHGSRKYSGLIVNKAPHDFQFVQKTDESGPHSHRLYYLGMPYGSRENSLLYSEIPKKVRKEALLLLSWKQMLDHFQATPHHGVYSREEELLRERKRLGVFGITSYDFHSESGLFLFQASNSLFHCRDGGKNGFMVSPMKPLEIKTQCSGPRMDPKICPADPAFFSFINNSDLWVANIETGEERRLTFCHQGLSNVLDDPKSAGVATFVIQEEFDRFTGYWWCPTASWEGSEGLKTLRILYEEVDESEVEVIHVPSPALEERKTDSYRYPRTGSKNPKIALKLAEFQTDSQGKIVSTQEKELVQPFSSLFPKVEYIARAGWTRDGKYAWAMFLDRPQQWLQLVLLPPALFIPSTENEEQRLASARAVPRNVQPYVVYEEVTNVWINVHDIFYPFPQSEGEDELCFLRANECKTGFCHLYKVTAVLKSQGYDWSEPFSPGEDEFKCPIKEEIALTSGEWEVLARHGSKIWVNEETKLVYFQGTKDTPLEHHLYVVSYEAAGEIVRLTTPGFSHSCSMSQNFDMFVSHYSSVSTPPCVHVYKLSGPDDDPLHKQPRFWASMMEAASCPPDYVPPEIFHFHTRSDVRLYGMIYKPHALQPGKKHPTVLFVYGGPQVQLVNNSFKGIKYLRLNTLASLGYAVVVIDGRGSCQRGLRFEGALKNQMGQVEIEDQVEGLQFVAEKYGFIDLSRVAIHGWSYGGFLSLMGLIHKPQVFKVAIAGAPVTVWMAYDTGYTERYMDVPENNQHGYEAGSVALHVEKLPNEPNRLLILHGFLDENVHFFHTNFLVSQLIRAGKPYQLQIYPNERHSIRCPESGEHYEVTLLHFLQEYL
